Source: US20240209100A1
Like-named read-outs stand apart in the source and are kept apart here.

Tests used:
Assay in all cases: cell-based or functional assay
[1] = target: T1, IL-18 receptor (IL-18Rα/IL-18Rβ) overexpressed on HEK-Blue IL-18 cells (Homo sapiens (Human)) (UniProt Q13478)
T1 sequence 1: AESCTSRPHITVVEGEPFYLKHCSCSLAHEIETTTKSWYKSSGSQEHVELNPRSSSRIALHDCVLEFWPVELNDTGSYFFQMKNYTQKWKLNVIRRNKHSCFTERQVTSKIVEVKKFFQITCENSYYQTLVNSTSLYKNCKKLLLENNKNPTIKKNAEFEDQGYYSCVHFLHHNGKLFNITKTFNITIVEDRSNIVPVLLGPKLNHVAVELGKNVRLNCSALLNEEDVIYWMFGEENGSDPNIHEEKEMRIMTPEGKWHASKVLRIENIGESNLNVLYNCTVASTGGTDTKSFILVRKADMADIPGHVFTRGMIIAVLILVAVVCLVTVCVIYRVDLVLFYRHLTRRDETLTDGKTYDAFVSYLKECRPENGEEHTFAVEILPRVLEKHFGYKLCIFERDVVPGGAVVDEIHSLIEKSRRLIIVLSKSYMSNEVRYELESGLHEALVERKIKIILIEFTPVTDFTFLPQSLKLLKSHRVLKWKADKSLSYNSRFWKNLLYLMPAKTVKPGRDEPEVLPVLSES
T1 sequence 2: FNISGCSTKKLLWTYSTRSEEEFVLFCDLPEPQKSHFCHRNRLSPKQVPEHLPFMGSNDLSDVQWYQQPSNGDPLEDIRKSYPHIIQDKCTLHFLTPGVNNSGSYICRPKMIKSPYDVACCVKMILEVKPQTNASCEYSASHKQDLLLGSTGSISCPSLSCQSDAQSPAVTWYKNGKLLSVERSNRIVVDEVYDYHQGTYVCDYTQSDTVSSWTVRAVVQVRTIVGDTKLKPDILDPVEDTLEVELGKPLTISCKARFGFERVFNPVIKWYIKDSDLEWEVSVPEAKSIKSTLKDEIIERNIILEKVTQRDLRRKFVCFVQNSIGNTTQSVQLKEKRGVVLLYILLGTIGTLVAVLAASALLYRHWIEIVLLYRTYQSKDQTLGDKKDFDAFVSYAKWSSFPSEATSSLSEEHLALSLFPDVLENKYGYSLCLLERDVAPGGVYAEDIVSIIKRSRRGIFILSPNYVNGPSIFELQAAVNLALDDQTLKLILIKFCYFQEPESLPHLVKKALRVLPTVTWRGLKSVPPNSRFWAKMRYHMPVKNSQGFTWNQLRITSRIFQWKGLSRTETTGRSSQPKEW

[2] = target: T1, IL-18 receptor (IL-18Rα/IL-18Rβ) overexpressed on HEK-Blue IL-18 cells (Homo sapiens (Human)); remark: listed apart in the source
[3] = target: T1, IL-18 receptor (IL-18Rα/IL-18Rβ) overexpressed on HEK-Blue IL-18 cells (Homo sapiens (Human)); remark: listed apart in the source
[4] = target: T1, IL-18 receptor (IL-18Rα/IL-18Rβ) overexpressed on HEK-Blue IL-18 cells (Homo sapiens (Human)); remark: listed apart in the source
[5] = target: T1, IL-18 receptor (IL-18Rα/IL-18Rβ) overexpressed on HEK-Blue IL-18 cells (Homo sapiens (Human)); remark: listed apart in the source
[6] = target: T2, IL-18 receptor (IL-18Rα/IL-18Rβ) on human PBMCs (human) (UniProt Q13478)
T2 sequence 1: T1 sequence 1
T2 sequence 2: T1 sequence 2

Sequence of Human IL-18 (Q14116 37-193 limits assumed): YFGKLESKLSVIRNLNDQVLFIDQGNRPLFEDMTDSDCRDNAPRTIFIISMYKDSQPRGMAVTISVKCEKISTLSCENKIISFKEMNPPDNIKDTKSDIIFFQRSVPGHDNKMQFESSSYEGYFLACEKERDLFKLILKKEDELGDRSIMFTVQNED

In the case of “Human IL-18 (from UniProt Q14116 37-193) (ligand)”, the HEK-Blue IL-18: Abs 405 at 100 nM [1] was 2.6 Abs, the HEK-Blue IL-18: Fold over background [1] was 14.4 fold and the HEK-Blue IL-18: Abs405 [2] was 3.08 Abs. For the same substance, the HEK-Blue IL-18: Fold over background [2] was 26 fold, the HEK-Blue IL-18: Abs405 [3] was 3.1 Abs and the HEK-Blue IL-18: Fold over background [3] was 13.6 fold. For the same substance, the HEK-Blue IL-18: Abs 405 at 100 nM [4] was 3 Abs, the HEK-Blue IL-18: Fold over background [4] was 13.2 fold and the HEK-Blue IL-18: Abs 405 (Ave of 2) [5] was 2.6 Abs. The HEK-Blue IL-18: Abs405 (Emax), Average (hu IL-18) [5] was 2.72 Abs, the HEK-Blue IL-18: EC50 (M), Average (hu IL-18) [5] was 7.14e-14 M and the HEK-Blue IL-18: Emax (Abs at 630 nm), Human IL-18 (1 ng/ml) (Abs at 630 nm) [5] was 3.25. The HEK-Blue IL-18: Fold over background [5] was 22 fold, the PBMC IFNγ induction (24 h, with IL-12): EC50, Average [6] was 6.8 and the PBMC IFNγ induction (24 h, with IL-12): EC50, donor 1 [6] was 1.9. The PBMC IFNγ induction (24 h, with IL-12): EC50, donor 2 [6] was 1.7, the PBMC IFNγ induction (24 h, with IL-12): EC50, donor 3 [6] was 1.4 and the PBMC IFNγ induction (24 h, with IL-12): EC50, donor 4 [6] was 4.7. The PBMC IFNγ induction (24 h, with IL-12): EC50, donor 5 [6] was 1.9, the PBMC IFNγ induction (24 h, with IL-12): EC50, donor 6 [6] was 29.4 and the PBMC: calculated maximum induction of IFNγ after 24 hours, donor 1 [6] was 42000. It also gave a PBMC: calculated maximum induction of IFNγ after 24 hours, donor 2 [6] of 5300, a PBMC: calculated maximum induction of IFNγ after 24 hours, donor 3 [6] of 89000 and a PBMC: calculated maximum induction of IFNγ after 24 hours, donor 4 [6] of 69000. It also gave a PBMC: calculated maximum induction of IFNγ after 24 hours, donor 5 [6] of 150000 and a PBMC: calculated maximum induction of IFNγ after 24 hours, donor 6 [6] of 28000.
